Reference: article PMC5715260

How the values were obtained:
Assay in all cases: high performance liquid chromatography; mass of the native TTR compared with the subunit mass; data not shown
[1] = target: pigC/crocTTR (Crocodylus porosus TTR with the C-terminal sequence changed to that of S. scrofa TTR) (Crocodylus porosus | Sus scrofa) (UniProt O55245)
[2] = target: pigC/huTTR (human TTR with the C-terminal sequence changed to that of Sus scrofa TTR) (human | Sus scrofa)
[3] = target: xenoN/pigC/huTTR (human TTR with the N-terminal and C-terminal sequences changed to those of Xenopus laevis and S. scrofa, respectively) (Xenopus laevis | human | Sus scrofa) (UniProt B7ZS96)

Sequence of xenoN/pigC/huTTR (human TTR with the N-terminal and C-terminal sequences changed to those of Xenopus laevis and S. scrofa, respectively) (P50390 whole entry, looked up): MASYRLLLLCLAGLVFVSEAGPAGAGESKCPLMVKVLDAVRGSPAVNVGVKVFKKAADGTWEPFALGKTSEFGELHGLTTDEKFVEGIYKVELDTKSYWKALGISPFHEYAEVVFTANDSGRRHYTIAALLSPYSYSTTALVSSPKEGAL
Sequence of xenoN/pigC/huTTR (human TTR with the N-terminal and C-terminal sequences changed to those of Xenopus laevis and S. scrofa, respectively) (B7ZS96 whole entry, looked up): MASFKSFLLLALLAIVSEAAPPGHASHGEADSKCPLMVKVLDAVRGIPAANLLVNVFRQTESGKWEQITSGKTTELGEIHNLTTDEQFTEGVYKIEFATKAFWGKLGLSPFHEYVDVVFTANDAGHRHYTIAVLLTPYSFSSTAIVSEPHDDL
Sequence of pigC/huTTR (human TTR with the C-terminal sequence changed to that of Sus scrofa TTR) (P50390 whole entry): as the sequence (P50390 whole entry, looked up) above

pigC/crocTTR (Crocodylus porosus TTR with the C-terminal sequence changed to that of S. scrofa TTR) (from UniProt O55245 21-114; P50390 135-150)
stoichiometry N [1]: 4

pigC/huTTR (human TTR with the C-terminal sequence changed to that of Sus scrofa TTR) (from UniProt P50390 141-150)
stoichiometry N [2]: 4

xenoN/pigC/huTTR (human TTR with the N-terminal and C-terminal sequences changed to those of Xenopus laevis and S. scrofa, respectively) (from UniProt B7ZS96 1-9; P50390 141-150)
stoichiometry N [3]: 4
